Test results: the array DNA melting data of Ke et al.

Experiment: melting temperature; melt of duplexes
Details: sodium 0.0675 M; strand 1 µM

Substance | Tm
CGACGTGCTTGATGTGCTG+CAGCACATGTAGCACGTCG (((((((((..((((((((+))))))))..))))))))) | 51.7 °C
CGACGTGCTTCATGTGCTG+CAGCACATCGTGCACGTCG ((((((((...((((((((+))))))))...)))))))) | 43.2 °C
CGACGTGCCCCATGTGCTG+CAGCACATCGGGCACGTCG ((((((((((.((((((((+)))))))).)))))))))) | 57.2 °C
CGACGTGCTCCATGTGCTG+CAGCACATGTTGCACGTCG ((((((((..(((((((((+)))))))))..)))))))) | 52.7 °C
CGACGTGCCTCATGTGCTG+CAGCACATTCTGCACGTCG ((((((((...((((((((+))))))))...)))))))) | 47.1 °C
CGACGTGCCGAATGTGCTG+CAGCACATCGAGCACGTCG ((((((((...((((((((+))))))))...)))))))) | 55.3 °C
CGACGTGCAGCATGTGCTG+CAGCACATTCGGCACGTCG ((((((((.(.((((((((+)))))))).).)))))))) | 49.7 °C
CGACGTGCGGAATGTGCTG+CAGCACATCGGGCACGTCG ((((((((...((((((((+))))))))...)))))))) | 50 °C
CGACGTGCCGGATGTGCTG+CAGCACATTAGGCACGTCG (((((((((..((((((((+))))))))..))))))))) | 57 °C
CGACGTGCCCAATGTGCTG+CAGCACATTCTGCACGTCG ((((((((..(((((((((+)))))))))..)))))))) | 49.9 °C
CGACGTGCTGTATGTGCTG+CAGCACATGACGCACGTCG ((((((((...((((((((+))))))))...)))))))) | 47.9 °C
CGACGTGCGCCATGTGCTG+CAGCACATGGAGCACGTCG ((((((((.((((((((((+)))))))))).)))))))) | 62.3 °C
CGACGTGCTGCATGTGCTG+CAGCACATTGTGCACGTCG ((((((((...((((((((+))))))))...)))))))) | 45.5 °C
CGACGTGCATGATGTGCTG+CAGCACATGAGGCACGTCG ((((((((.(.((((((((+)))))))).).)))))))) | 52.6 °C
CGACGTGCATAATGTGCTG+CAGCACATTATGCACGTCG (((((((((((((((((((+))))))))))))))))))) | 61.8 °C
CGACGTGCTATATGTGCTG+CAGCACATGCGGCACGTCG ((((((((...((((((((+))))))))...)))))))) | 49.4 °C
CGACGTGCGTTATGTGCTG+CAGCACATTCGGCACGTCG ((((((((...((((((((+))))))))...)))))))) | 49.8 °C
CGACGTGCTTCATGTGCTG+CAGCACATCTAGCACGTCG (((((((((..((((((((+))))))))..))))))))) | 50.3 °C
CGACGTGCGGCATGTGCTG+CAGCACATAGTGCACGTCG ((((((((...((((((((+))))))))...)))))))) | 45.9 °C
CGACGTGCTTTATGTGCTG+CAGCACATATTGCACGTCG ((((((((..(((((((((+)))))))))..)))))))) | 51.2 °C
CGACGTGCGGAATGTGCTG+CAGCACATGTTGCACGTCG ((((((((...((((((((+))))))))...)))))))) | 52.8 °C
CGACGTGCGATATGTGCTG+CAGCACATCTCGCACGTCG ((((((((((.((((((((+)))))))).)))))))))) | 57.2 °C
CGACGTGCTCGATGTGCTG+CAGCACATGCAGCACGTCG (((((((((..((((((((+))))))))..))))))))) | 52.1 °C
CGACGTGCTGTATGTGCTG+CAGCACATTCCGCACGTCG ((((((((.(.((((((((+)))))))).).)))))))) | 50.1 °C

Substance | Tm
CGACGTGCGTGATGTGCTG+CAGCACATCACGCACGTCG (((((((((((((((((((+))))))))))))))))))) | 66.2 °C
CGACGTGCAAAATGTGCTG+CAGCACATCGAGCACGTCG ((((((((...((((((((+))))))))...)))))))) | 49.2 °C
CGACGTGCCAAATGTGCTG+CAGCACATTTAGCACGTCG ((((((((.((((((((((+)))))))))).)))))))) | 54.4 °C
CGACGTGCTACATGTGCTG+CAGCACATACTGCACGTCG ((((((((...((((((((+))))))))...)))))))) | 49.3 °C
CGACGTGCTGGATGTGCTG+CAGCACATTCTGCACGTCG ((((((((.(.((((((((+)))))))).).)))))))) | 55.6 °C
CGACGTGCAGCATGTGCTG+CAGCACATATGGCACGTCG ((((((((...((((((((+))))))))...)))))))) | 46.7 °C
CGACGTGCAAAATGTGCTG+CAGCACATACTGCACGTCG (((((((((..((((((((+))))))))..))))))))) | 50.4 °C
CGACGTGCCGGATGTGCTG+CAGCACATATGGCACGTCG (((((((((..((((((((+))))))))..))))))))) | 57.2 °C
CGACGTGCCCCATGTGCTG+CAGCACATTAGGCACGTCG (((((((((..((((((((+))))))))..))))))))) | 52.5 °C
CGACGTGCATTATGTGCTG+CAGCACATCGGGCACGTCG ((((((((...((((((((+))))))))...)))))))) | 47 °C
CGACGTGCAGGATGTGCTG+CAGCACATGACGCACGTCG ((((((((...((((((((+))))))))...)))))))) | 47.3 °C
CGACGTGCCCGATGTGCTG+CAGCACATATCGCACGTCG ((((((((...((((((((+))))))))...)))))))) | 47.2 °C
CGACGTGCTGAATGTGCTG+CAGCACATCGTGCACGTCG ((((((((...((((((((+))))))))...)))))))) | 46.3 °C
CGACGTGCCCGATGTGCTG+CAGCACATTGCGCACGTCG ((((((((.(.((((((((+)))))))).).)))))))) | 51.2 °C
CGACGTGCCTAATGTGCTG+CAGCACATGGTGCACGTCG ((((((((...((((((((+))))))))...)))))))) | 48.3 °C
CGACGTGCCGGATGTGCTG+CAGCACATAGCGCACGTCG ((((((((...((((((((+))))))))...)))))))) | 49.9 °C
CGACGTGCAGGATGTGCTG+CAGCACATCTGGCACGTCG ((((((((..(((((((((+)))))))))..)))))))) | 57.1 °C
CGACGTGCATGATGTGCTG+CAGCACATTCGGCACGTCG ((((((((...((((((((+))))))))...)))))))) | 50.3 °C
CGACGTGCTCTATGTGCTG+CAGCACATGACGCACGTCG ((((((((...((((((((+))))))))...)))))))) | 47 °C
CGACGTGCGCAATGTGCTG+CAGCACATTCTGCACGTCG ((((((((..(((((((((+)))))))))..)))))))) | 52.3 °C
CGACGTGCGCTATGTGCTG+CAGCACATAGAGCACGTCG ((((((((.((((((((((+)))))))))).)))))))) | 58.7 °C
CGACGTGCCCAATGTGCTG+CAGCACATCCCGCACGTCG ((((((((...((((((((+))))))))...)))))))) | 47.9 °C
CGACGTGCATCATGTGCTG+CAGCACATATCGCACGTCG ((((((((...((((((((+))))))))...)))))))) | 47.4 °C
CGACGTGCCTGATGTGCTG+CAGCACATTTCGCACGTCG ((((((((...((((((((+))))))))...)))))))) | 48.2 °C

Substance | Tm
CGACGTGCTTCATGTGCTG+CAGCACATGACGCACGTCG ((((((((.((((((((((+)))))))))).)))))))) | 55.1 °C
CGACGTGCCACATGTGCTG+CAGCACATAAGGCACGTCG (((((((((..((((((((+))))))))..))))))))) | 54 °C
CGACGTGCAACATGTGCTG+CAGCACATCTTGCACGTCG ((((((((((.((((((((+)))))))).)))))))))) | 52.5 °C
CGACGTGCACTATGTGCTG+CAGCACATTTAGCACGTCG ((((((((...((((((((+))))))))...)))))))) | 42.7 °C
CGACGTGCCGCATGTGCTG+CAGCACATGCAGCACGTCG ((((((((.((((((((((+)))))))))).)))))))) | 60 °C
CGACGTGCTTAATGTGCTG+CAGCACATCGTGCACGTCG ((((((((...((((((((+))))))))...)))))))) | 43.3 °C
CGACGTGCCGAATGTGCTG+CAGCACATTGAGCACGTCG ((((((((..(((((((((+)))))))))..)))))))) | 53.3 °C
CGACGTGCGTGATGTGCTG+CAGCACATGCAGCACGTCG ((((((((...((((((((+))))))))...)))))))) | 54.1 °C
CGACGTGCATAATGTGCTG+CAGCACATCCGGCACGTCG ((((((((...((((((((+))))))))...)))))))) | 48.3 °C
CGACGTGCTTGATGTGCTG+CAGCACATACTGCACGTCG ((((((((...((((((((+))))))))...)))))))) | 50.4 °C
CGACGTGCGGTATGTGCTG+CAGCACATATTGCACGTCG ((((((((..(((((((((+)))))))))..)))))))) | 55 °C
CGACGTGCGTTATGTGCTG+CAGCACATGATGCACGTCG ((((((((.(.((((((((+)))))))).).)))))))) | 54.6 °C
CGACGTGCTGAATGTGCTG+CAGCACATGCTGCACGTCG ((((((((.(.((((((((+)))))))).).)))))))) | 53.5 °C
CGACGTGCACCATGTGCTG+CAGCACATGTGGCACGTCG ((((((((..(((((((((+)))))))))..)))))))) | 53.4 °C
CGACGTGCTCCATGTGCTG+CAGCACATAAAGCACGTCG (((((((((..((((((((+))))))))..))))))))) | 50.9 °C
CGACGTGCGTAATGTGCTG+CAGCACATATGGCACGTCG ((((((((...((((((((+))))))))...)))))))) | 51 °C
CGACGTGCTTAATGTGCTG+CAGCACATCAAGCACGTCG ((((((((((.((((((((+)))))))).)))))))))) | 55 °C
CGACGTGCCATATGTGCTG+CAGCACATTGCGCACGTCG ((((((((...((((((((+))))))))...)))))))) | 51.5 °C
CGACGTGCATAATGTGCTG+CAGCACATACGGCACGTCG ((((((((...((((((((+))))))))...)))))))) | 47.3 °C
CGACGTGCCAGATGTGCTG+CAGCACATATGGCACGTCG ((((((((((.((((((((+)))))))).)))))))))) | 59.9 °C
CGACGTGCACAATGTGCTG+CAGCACATGTAGCACGTCG ((((((((...((((((((+))))))))...)))))))) | 50.7 °C
CGACGTGCCCCATGTGCTG+CAGCACATAATGCACGTCG ((((((((...((((((((+))))))))...)))))))) | 45.8 °C
CGACGTGCTTTATGTGCTG+CAGCACATCCAGCACGTCG (((((((((..((((((((+))))))))..))))))))) | 49.4 °C
CGACGTGCGATATGTGCTG+CAGCACATTGTGCACGTCG ((((((((...((((((((+))))))))...)))))))) | 47.6 °C
